{"source": "paper PMC11880201", "key": {"INSM1 ZF1-ZF5 [1]": {"target": "T1, INSM1 ZF1-ZF5 (human, UniProt Q01101 257-497)", "T1 sequence (Q01101 257-497)": "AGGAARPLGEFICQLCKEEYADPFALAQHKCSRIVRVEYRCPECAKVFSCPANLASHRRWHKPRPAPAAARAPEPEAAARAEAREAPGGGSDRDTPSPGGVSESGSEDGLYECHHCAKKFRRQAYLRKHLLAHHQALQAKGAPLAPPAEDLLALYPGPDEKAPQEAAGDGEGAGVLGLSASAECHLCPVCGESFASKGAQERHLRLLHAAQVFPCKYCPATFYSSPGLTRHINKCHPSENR", "test": "EMSA"}, "INSM1 ZF1;TEAD1-TEAD [2]": {"target": "T2, INSM1 ZF1;TEAD1-TEAD (human;human?, UniProt Q01101;P28347 257-292;28-104, |)", "T2 sequence (Q01101 257-292, chain 1 of 2)": "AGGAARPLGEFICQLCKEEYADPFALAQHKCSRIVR", "T2 sequence (P28347 28-104, chain 2 of 2)": "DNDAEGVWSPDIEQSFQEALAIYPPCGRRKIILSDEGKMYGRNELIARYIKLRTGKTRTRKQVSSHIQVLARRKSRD", "test": "AUC"}, "INSM1 ZF3": {"target": "INSM1 ZF3 (human, UniProt Q01101 346-396)", "sequence (Q01101 346-396)": "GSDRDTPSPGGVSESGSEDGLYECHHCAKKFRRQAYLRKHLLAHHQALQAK", "test": "NMR titration"}, "INSM1 ZF1-ZF5 [3]": {"target": "T1, INSM1 ZF1-ZF5", "test": "NMR titration"}, "CTCF ZF3-ZF7": {"target": "T3, CTCF ZF3-ZF7 (human, UniProt P49711 317-467)", "T3 sequence": "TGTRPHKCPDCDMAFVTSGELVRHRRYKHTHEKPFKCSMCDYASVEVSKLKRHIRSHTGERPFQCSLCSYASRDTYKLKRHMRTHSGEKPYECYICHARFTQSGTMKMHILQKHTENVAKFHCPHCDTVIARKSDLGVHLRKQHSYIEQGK", "test": "EMSA"}, "TEAD1-TEAD": {"target": "TEAD1-TEAD (UniProt P28347 28-104)", "sequence (P28347 28-104)": "as the sequence (P28347 28-104, chain 2 of 2) above", "test": "EMSA"}, "TEAD1-TEAD R75A": {"target": "TEAD1-TEAD R75A (UniProt P28347 28-104, R75A)", "sequence (P28347 28-104 R75A)": "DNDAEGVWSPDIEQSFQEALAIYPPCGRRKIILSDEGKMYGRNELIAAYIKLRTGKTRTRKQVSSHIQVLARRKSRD", "test": "EMSA"}, "TEAD1-TEAD R80A": {"target": "TEAD1-TEAD R80A (UniProt P28347 28-104, R80A)", "sequence (P28347 28-104 R80A)": "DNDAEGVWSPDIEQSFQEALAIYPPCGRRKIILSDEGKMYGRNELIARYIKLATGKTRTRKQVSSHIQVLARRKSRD", "test": "EMSA"}, "TEAD1-TEAD L79A": {"target": "TEAD1-TEAD L79A (UniProt P28347 28-104, L79A)", "sequence (P28347 28-104 L79A)": "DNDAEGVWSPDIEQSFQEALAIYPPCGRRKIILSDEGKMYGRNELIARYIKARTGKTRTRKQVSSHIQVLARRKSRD", "test": "EMSA"}, "INSM1 ZF1-ZF5 [4]": {"target": "T1, INSM1 ZF1-ZF5", "test": "EMSA", "remark": "listed apart in the source"}, "INSM1 ZF1;TEAD1-TEAD [5]": {"target": "T2, INSM1 ZF1;TEAD1-TEAD", "test": "EMSA"}}, "note": "Where two headings read alike, the source gives them in different places."}
{"binder": "M1 (dsDNA) DNA 1: TGTCAGGGGGCA DNA 2: TGCCCCCTGACA", "values": [{"measurement": "Kd", "setting": "INSM1 ZF1-ZF5 [1]", "result": 6, "unit": "µM"}]}
{"binder": "MCAT (unlabeled) (dsDNA) DNA 1: AGTGGAATGTGC DNA 2: GCACATTCCACT", "values": [{"measurement": "binding result", "setting": "INSM1 ZF1;TEAD1-TEAD [2]", "result": "binds"}]}
{"binder": "M2 (unlabeled) (dsDNA) DNA 1: TACCACCAGGGGGCAGT DNA 2: ACTGCCCCCTGGTGGTA", "values": [{"measurement": "binding result", "setting": "INSM1 ZF3", "result": "binds"}, {"measurement": "binding result", "setting": "INSM1 ZF1-ZF5 [3]", "result": "binds"}]}
{"binder": "M2 (FAM) (dsDNA) DNA 1: TACCACCAGGGGGCAGT DNA 2: ACTGCCCCCTGGTGGTA", "values": [{"measurement": "Kd", "setting": "CTCF ZF3-ZF7", "result": 0.0984, "unit": "µM"}]}
{"binder": "MCAT (FAM) (dsDNA) DNA 1: AGTGGAATGTGC DNA 2: GCACATTCCACT", "values": [{"measurement": "Kd", "setting": "TEAD1-TEAD", "result": "~0.09", "unit": "µM"}, {"measurement": "binding result", "setting": "TEAD1-TEAD R75A", "result": "binds"}, {"measurement": "binding result", "setting": "TEAD1-TEAD R80A", "result": "binds"}, {"measurement": "binding result", "setting": "TEAD1-TEAD L79A", "result": "binds"}, {"measurement": "Kd", "setting": "INSM1 ZF1-ZF5 [4]", "result": 8.24, "unit": "µM"}, {"measurement": "binding result", "setting": "INSM1 ZF1;TEAD1-TEAD [5]", "result": "binds"}]}
